Reference: PMC10362293
Read-outs that look alike come from different tables or passages of the source.

Legend:
[1] = molecular target: FoxP1 FKH domain, single-cysteine mutant N32C (on C61S) labelled with Oregon Green 488 (human); experiment: fluorescence polarisation
[2] = molecular target: FoxP1 FKH domain, single-cysteine mutant N32C (on C61S) labelled with Oregon Green 488 (human); experiment: fluorescence polarisation; remark: listed apart in the source

- Kd [1]: 18 µM
- kon [1]: 583 M⁻¹ s⁻¹
- Kd [2]: 38 µM
B1: FoxP2 FKH domain, unlabeled (domain or fragment)
chain: VRPPFTYATLIRQAIMESSDRQLTLNEIYSWFTRTFAYFRRNAATWKNAVRHNLSLHKCFVRVENVKGAVWTVDEVEYQKRRSQKITGSPTL
